In patent publication US20120322150:

How the values were obtained:
GST-hsGSK3β = GST-hsGSK3β (UniProt P49841)
GST-BIN2 = target: T1, GST-BIN2 (UniProt Q39011)
T1 sequence: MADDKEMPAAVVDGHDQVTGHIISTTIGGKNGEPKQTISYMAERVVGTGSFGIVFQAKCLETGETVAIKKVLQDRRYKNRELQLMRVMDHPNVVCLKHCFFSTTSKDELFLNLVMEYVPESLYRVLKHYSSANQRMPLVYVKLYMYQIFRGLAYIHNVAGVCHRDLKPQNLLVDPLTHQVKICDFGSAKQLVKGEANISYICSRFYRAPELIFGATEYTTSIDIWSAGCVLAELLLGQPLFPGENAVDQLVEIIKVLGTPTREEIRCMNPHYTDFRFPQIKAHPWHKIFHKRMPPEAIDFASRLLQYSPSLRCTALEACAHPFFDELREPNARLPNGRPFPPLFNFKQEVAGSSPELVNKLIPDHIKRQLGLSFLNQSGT

Sequence of GST-hsGSK3β (P49841 whole entry, looked up): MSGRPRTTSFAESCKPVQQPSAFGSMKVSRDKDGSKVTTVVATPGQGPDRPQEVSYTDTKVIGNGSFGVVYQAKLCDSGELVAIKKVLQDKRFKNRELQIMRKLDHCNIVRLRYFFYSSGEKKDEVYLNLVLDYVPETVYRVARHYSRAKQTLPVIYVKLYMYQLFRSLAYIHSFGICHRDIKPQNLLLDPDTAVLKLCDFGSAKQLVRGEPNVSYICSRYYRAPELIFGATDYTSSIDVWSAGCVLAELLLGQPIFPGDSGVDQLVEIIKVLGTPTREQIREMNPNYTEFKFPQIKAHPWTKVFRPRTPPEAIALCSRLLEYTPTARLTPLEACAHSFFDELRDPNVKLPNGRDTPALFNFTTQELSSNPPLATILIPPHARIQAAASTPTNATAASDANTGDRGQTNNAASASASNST

Substance	phosphorylation status of tyrosine 216 of hsGSK3β (immunoblot with anti-phospho-tyrosine 216 antibody) (GST-hsGSK3β)	dephosphorylation of BIN2 tyrosine200 (GST-BIN2)
MBP-hsPPP1cc	human protein phosphatase 1 gamma (PP1γ) dephosphorylates tyrosine 216 of human GSK3 beta in vitro	
PP1 purified from E. coli		The presence of PP1 increased dephosphorylation of BIN2 tyrosine200
